In patent publication US20190382483A1:

Tests used:
[1] = biological target: hSIRPa-His recombinant protein (Sino Biologicals, reference 11612-H08H) (human) (UniProt P78324); experiment: Biacore (SPR)
[2] = biological target: Recombinant hSIRPg-His (Sino Biologicals, reference 11828-H08H) (human) (UniProt Q9P1W8); experiment: Blitz (BLI); SIRPg pre-incubated with SIRP29; settings: Fc fusion
[3] = biological target: Recombinant hSIRPg-His (Sino Biologicals, reference 11828-H08H) (human) (UniProt Q9P1W8); experiment: Blitz (BLI); no antibody; settings: Fc fusion
[4] = biological target: Recombinant hSIRPg-His (Sino Biologicals, reference 11828-H08H) (human) (UniProt Q9P1W8); experiment: Blitz (BLI); SIRPg pre-incubated with Kwar23; settings: Fc fusion

Recombinant hSIRPg-His (Sino Biologicals, reference 11828-H08H) (human), sequence (Q9P1W8 29-360): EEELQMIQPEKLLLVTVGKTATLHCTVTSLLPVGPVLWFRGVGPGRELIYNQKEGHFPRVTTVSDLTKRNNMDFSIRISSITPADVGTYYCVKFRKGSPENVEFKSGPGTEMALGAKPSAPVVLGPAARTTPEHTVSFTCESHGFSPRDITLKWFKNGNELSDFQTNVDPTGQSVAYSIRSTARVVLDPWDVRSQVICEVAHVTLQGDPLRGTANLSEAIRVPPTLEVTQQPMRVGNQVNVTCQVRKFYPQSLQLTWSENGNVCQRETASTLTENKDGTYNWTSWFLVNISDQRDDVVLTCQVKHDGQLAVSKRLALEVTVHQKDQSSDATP
human CD47Fc (Sino Biologicals, reference 12283-H02H), sequence (Q08722 19-139): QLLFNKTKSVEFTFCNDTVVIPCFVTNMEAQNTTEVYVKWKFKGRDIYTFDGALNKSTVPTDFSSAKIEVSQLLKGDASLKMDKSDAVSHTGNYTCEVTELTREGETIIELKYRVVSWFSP
hSIRPa-His recombinant protein (Sino Biologicals, reference 11612-H08H) (human), sequence (P78324 31-370): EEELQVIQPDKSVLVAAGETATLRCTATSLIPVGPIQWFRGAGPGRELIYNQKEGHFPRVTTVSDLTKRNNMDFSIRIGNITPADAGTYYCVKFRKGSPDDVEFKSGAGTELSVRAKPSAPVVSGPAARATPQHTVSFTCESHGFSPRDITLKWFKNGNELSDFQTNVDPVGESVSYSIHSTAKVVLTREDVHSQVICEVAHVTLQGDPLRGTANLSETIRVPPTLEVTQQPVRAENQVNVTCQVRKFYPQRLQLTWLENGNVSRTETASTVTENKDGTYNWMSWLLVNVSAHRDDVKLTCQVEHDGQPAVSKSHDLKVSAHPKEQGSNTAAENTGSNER

| Kd [1] | Kd [2] | Kd [3] | Kd [4] | Substance |
| --- | --- | --- | --- | --- |
| 0.367 nM | – | – | – | Kwar23 |
| – | 2570 nM | 597 nM | 288 µM | human CD47Fc (Sino Biologicals, reference 12283-H02H) (from UniProt Q08722 19-139) |
